Experimental data published in patent US20080044423A1 (AstraZeneca / MedImmune, published 2008).
Values joined by “and” are separate entries in the source; they are usually repeats but may differ in a detail not shown here. Equal values may be shown once. Read-outs that look alike come from different tables or passages of the source.

B1: murine IL-17A (R & D Systems) (ligand, UniProt Q62386 22-158, looked up)
chain: TVKAAAIIPQSSACPNTEAKDFLQNVKVNLKVFNSLGAKVSSRRPSDYLNRSTSPWTLHRNEDPDRYPSVIWEAQCRHQRCVNAEGKLDHHMNSVLIQQEILVLKREPESCPFTFRVEKMLVGVGCTCVASIVRQAA

Tests used:
TINA1 IgG = assay: DELFIA epitope competition vs biotinylated human IL-17A on immobilised IgG
TINA10 IgG = assay: as above
TINA51 IgG = assay: as above
cynomolgus IL-17A [1] = target: T1, cynomolgus IL-17A (cynomolgus, UniProt Q16552 24-155 (human entry), limits assumed); assay: cell-based or functional assay
T1 chain: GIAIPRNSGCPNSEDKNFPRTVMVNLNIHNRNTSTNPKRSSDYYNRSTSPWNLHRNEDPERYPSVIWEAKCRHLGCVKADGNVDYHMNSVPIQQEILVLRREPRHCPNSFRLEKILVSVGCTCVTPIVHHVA

[2] = target: human IL-17A (HT1080 assay of Example 1, source not stated) (human, UniProt Q16552 24-155); assay: cell-based or functional assay
cynomolgus IL-17A [3] = target: T1, cynomolgus IL-17A; assay: cell-based or functional assay
[4] = target: T2, human IL-17A derived from the HEK-EBNA expression system (human, UniProt Q16552 24-155); assay: cell-based or functional assay
[5] = target: T3, human IL-17A, untagged, E. coli derived (in house or Peprotech) (human, UniProt Q16552 24-155); assay: cell-based or functional assay
[6] = target: T3, human IL-17A, untagged, E. coli derived …; assay: cell-based or functional assay; remark: listed apart in the source
[7] = target: T3, human IL-17A, untagged, E. coli derived …; assay: cell-based or functional assay; remark: listed apart in the source
[8] = target: B1; assay: DELFIA epitope competition vs biotinylated human IL-17A on immobilised IgG
human IL-17B (Peprotech) = target: T4, human IL-17B (Peprotech) (human, UniProt Q9UHF5 21-180, limits assumed); assay: as above
T4 sequence (looked up): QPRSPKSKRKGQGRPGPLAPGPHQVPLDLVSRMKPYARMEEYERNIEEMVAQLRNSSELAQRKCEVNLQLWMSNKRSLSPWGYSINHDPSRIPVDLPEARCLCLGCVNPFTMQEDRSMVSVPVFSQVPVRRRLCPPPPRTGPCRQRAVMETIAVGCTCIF

[9] = target: T5, human IL-17C (R & D Systems) (human, UniProt Q9P0M4 19-197); assay: as above
T5 sequence (looked up): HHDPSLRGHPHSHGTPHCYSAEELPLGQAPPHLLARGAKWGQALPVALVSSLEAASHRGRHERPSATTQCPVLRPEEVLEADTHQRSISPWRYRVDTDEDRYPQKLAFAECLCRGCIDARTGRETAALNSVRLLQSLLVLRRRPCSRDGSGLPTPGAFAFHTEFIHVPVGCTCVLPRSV

human IL-17D (Peprotech) = target: T6, human IL-17D (Peprotech) (human, UniProt Q8TAD2 18-202, limits assumed); assay: as above
T6 sequence (looked up): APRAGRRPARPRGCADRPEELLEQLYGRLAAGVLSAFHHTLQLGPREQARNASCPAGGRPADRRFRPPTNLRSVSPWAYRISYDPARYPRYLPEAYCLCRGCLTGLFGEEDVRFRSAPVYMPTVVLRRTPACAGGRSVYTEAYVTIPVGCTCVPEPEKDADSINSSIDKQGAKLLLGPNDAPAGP

[10] = target: T7, human IL-17E (R & D Systems) (human, UniProt Q9H293 33-177); assay: as above
T7 sequence (looked up): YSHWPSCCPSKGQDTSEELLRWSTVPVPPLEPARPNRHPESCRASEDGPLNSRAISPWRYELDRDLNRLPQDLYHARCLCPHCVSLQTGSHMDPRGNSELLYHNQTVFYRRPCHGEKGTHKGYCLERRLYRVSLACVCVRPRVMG

human IL-17F (Peprotech) = target: T8, human IL-17F (Peprotech) (human, UniProt Q96PD4 31-163, limits assumed); assay: as above
T8 sequence (looked up): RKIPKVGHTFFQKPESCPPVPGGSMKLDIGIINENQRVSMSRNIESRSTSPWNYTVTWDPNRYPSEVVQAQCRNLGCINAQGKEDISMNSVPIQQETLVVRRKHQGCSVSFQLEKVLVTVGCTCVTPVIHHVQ

[11] = target: T9, HIS FLAG tagged human IL-17A (in house HEK EBNA derived) (human, UniProt Q16552 24-155); assay: HTRF receptor-ligand assay: inhibition of HIS FLAG IL-17A binding IL-17RA Fc
T9 construct: glycosylated, from HEK EBNA cells; also called HIS FLAG IL-17A; HIS FLAG human IL-17A; not shown: HIS FLAG tag

[12] = target: T9, HIS FLAG tagged human IL-17A (in house …); assay: as above; remark: listed apart in the source
[13] = target: T3, human IL-17A, untagged, E. coli derived …; assay: cell-based or functional assay; remark: listed apart in the source
[14] = target: T3, human IL-17A, untagged, E. coli derived …; assay: cell-based or functional assay; remark: listed apart in the source
[15] = target: T3, human IL-17A, untagged, E. coli derived …; assay: cell-based or functional assay; remark: listed apart in the source
[16] = target: T2, human IL-17A derived from the HEK-EBNA …; assay: estimated from pA2 (Schild) analysis in the HT1080 IL-6 release assay
[17] = target: T3, human IL-17A, untagged, E. coli derived …; assay: SPR BIAcore 2000; IgG1 amine-coupled on CM3, IL-17A 0.78-50 nM as analyte; 1:1 Langmuir fit
cynomolgus IL-17A [18] = target: T1, cynomolgus IL-17A; assay: as above
[19] = target: T10, Human IL-17A-Flag-His10 (HEK) (human, UniProt Q16552 24-155); assay: as above
T10 construct: may be the same protein as the HIS FLAG IL-17A; not shown: Flag-His10 tag

[20] = target: T3, human IL-17A, untagged, E. coli derived …; assay: SPR BIAcore 2000; IgG1 amine-coupled on CM3, IL-17A 0.78-50 nM as analyte; Bivalent Analyte fit (kd1/ka1)
cynomolgus IL-17A [21] = target: T1, cynomolgus IL-17A; assay: as above

B1
Fold difference from Human IL-17A (TINA1 IgG): 12 fold
IC50 (TINA1 IgG): 98 nM
% (printed in the IC50 column, presumably inhibition) (TINA10 IgG): 50%
Fold difference from Human IL-17A (TINA51 IgG): 0.7 fold
IC50 (TINA51 IgG): 35 nM

B2: Antibody 1 IgG1 (antibody, V domains shown)
VH: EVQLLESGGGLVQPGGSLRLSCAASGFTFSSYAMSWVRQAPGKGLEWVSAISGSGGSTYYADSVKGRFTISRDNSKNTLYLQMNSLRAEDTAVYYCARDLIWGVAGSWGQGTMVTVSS
VL: NFMLTQPHSVSESPGKTVTISCTRSSGSLANYYVQWYQQRPGSAPTIVIFANNQRPSGVPDRFSGSIDSSSNSASLTISRLKTEDEADYYCQSYDDSSVVFGGGTKLTVL
notes: human IgG1, lambda; constant regions not in the listing; also called Antibody 01; TINA12 IgG1
HT1080 IL-6 release, IgG IC50 (cynomolgus IL-17A [1]): 172 nM
HT1080 IL-6 release, IgG IC50 [2]: 22 nM
Fold difference in cross-reactivity (IgG) (cynomolgus IL-17A [3]): 6 fold
HT1080 IL-6 release, IgG IC50 (cynomolgus IL-17A [3]): 144 nM
HT1080 IL-6 release, IgG IC50 [4]: 23 nM
chondrocyte IL-6 release, geometric mean IC50 at 0.2 nM IL-17A [5]: 29.9 nM
chondrocyte IL-6 release, geometric mean IC50 at 2 nM IL-17A [5]: 75.7 nM
chondrocyte IL-8 release, geometric mean IC50 at 0.2 nM IL-17A [6]: 18.1 nM
chondrocyte IL-8 release, geometric mean IC50 at 2 nM IL-17A [6]: 44.5 nM
chondrocyte MMP13 release, IC50 at 2 nM IL-17A [7]: 147 nM and > 400 nM
chondrocyte MMP13 release, geometric mean IC50 at 0.2 nM IL-17A [7]: 110 nM
binding result [8]: no binding (tested: approx 100:1 over labelled IL-17A)
binding result (human IL-17B (Peprotech)): no binding (tested: approx 100:1 over labelled IL-17A)
binding result [9]: no binding (tested: approx 100:1 over labelled IL-17A)
binding result (human IL-17D (Peprotech)): no binding (tested: approx 100:1 over labelled IL-17A)
binding result [10]: no binding (tested: approx 100:1 over labelled IL-17A)
binding result (human IL-17F (Peprotech)): no binding (tested: approx 100:1 over labelled IL-17A)

B3: Antibody 1 scFv (scFv, V domains shown)
VH: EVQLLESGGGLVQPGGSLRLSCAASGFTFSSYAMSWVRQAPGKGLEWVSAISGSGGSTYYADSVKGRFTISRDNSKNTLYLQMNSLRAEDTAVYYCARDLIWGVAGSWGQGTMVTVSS
VL: NFMLTQPHSVSESPGKTVTISCTRSSGSLANYYVQWYQQRPGSAPTIVIFANNQRPSGVPDRFSGSIDSSSNSASLTISRLKTEDEADYYCQSYDDSSVVFGGGTKLTVL
notes: scFv (one chain); also called TINA12
HT1080 IL-6 release, scFv: % inhibition printed in the IC50 column (no IC50 reached) [4]: 70%
IC50 [11]: 12 nM
IC50 [12]: 12 nM

B4: Antibody 7 IgG1 (antibody, V domains shown)
VH: not shown
VL: NFMLTQPHSVSESPGKTVTISCTRSSGSLANYYVQWYQQRPGSSPTIVIFANNQRPSGVPDRFSGSIDSSSNSASLTISGLKTEDEADYYCQTYDPYSVVFGGGTKLTVL
notes: human IgG1, lambda; constant regions not in the listing; also called Antibody 07
HT1080 IL-6 release, IgG IC50 (cynomolgus IL-17A [3]): 5 nM
HT1080 IL-6 release, IgG geometric mean IC50 (n = 12) (cynomolgus IL-17A [3]): 4.8 nM
HT1080 IL-6 release, IgG IC50 [4]: 0.7 nM
HT1080 IL-6 release, IgG geometric mean IC50 (n = 15) [4]: 0.8 nM
chondrocyte IL-8 release, geometric mean IC50 at 2 nM IL-17A [6]: 1.6 nM
chondrocyte IL-8 release, geometric mean IC50 at 2 nM IL-17A [13]: 1.3 nM
cartilage explant synergised IL-6 response, Mean IC50 [14]: 0.61 nM
RA synovial fibroblast IL-8, Mean IC50 versus IL-17A (1 nM) and TNFα (0.1 ng/ml) [15]: 4.97 nM
RA synovial fibroblast IL-8, Mean IC50 versus IL-17A (2 nM) [15]: 2.85 nM
Kd [16]: 0.553 nM
Kd [17]: 0.195 nM
Kd (cynomolgus IL-17A [18]): 0.512 nM
Kd [19]: 0.171 nM
Kd [20]: 2.1 nM
Kd (cynomolgus IL-17A [21]): 1.34 nM
